Measurements published in patent EP4790071A2 (Akeso Biopharma, Inc., dated 2026).

Target: T1, human NT5E-Biotin (for NT5E, GenbankID: NP_002517.1, position: 1-552) (human, UniProt P21589 27-552, biotin label, site not stated)
T1 construct: range 1-552; Positions 1-552 as printed include the signal peptide; No cleavage site is stated; also called HNT5E-Biotin; antigen human NT5E-Biotin
T1 sequence (looked up): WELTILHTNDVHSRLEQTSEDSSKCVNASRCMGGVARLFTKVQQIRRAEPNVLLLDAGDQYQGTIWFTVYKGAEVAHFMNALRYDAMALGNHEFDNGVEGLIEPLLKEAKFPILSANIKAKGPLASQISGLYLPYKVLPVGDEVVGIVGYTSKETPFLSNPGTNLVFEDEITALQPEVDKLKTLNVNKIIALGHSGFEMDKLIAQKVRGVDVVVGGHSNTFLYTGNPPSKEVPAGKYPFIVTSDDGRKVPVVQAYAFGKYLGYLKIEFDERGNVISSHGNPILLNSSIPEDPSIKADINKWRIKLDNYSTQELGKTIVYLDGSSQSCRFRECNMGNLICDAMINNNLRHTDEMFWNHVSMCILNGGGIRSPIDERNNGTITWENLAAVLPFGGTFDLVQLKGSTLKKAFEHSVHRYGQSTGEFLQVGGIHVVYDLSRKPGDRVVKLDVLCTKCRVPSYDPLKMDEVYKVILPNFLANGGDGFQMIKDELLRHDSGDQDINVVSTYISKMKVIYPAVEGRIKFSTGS
Assay: ELISA, NT5E-Biotin on streptavidin plate

- EC50: 0.018 nM
B1: murine anti-CD73 monoclonal antibody 19F3 (antibody, V domains shown)
VH: EVQLQQSGPELVKPGASMRMSCKASGYSFTGYTMNWVKQSHGKNLEWIGLINPYNAGTSYNQKFKGKATLTVDKSSSTAYMELLSLTSEDSAVYYCARSEYRYGGDYFDYWGQGTTLTVSS
VL: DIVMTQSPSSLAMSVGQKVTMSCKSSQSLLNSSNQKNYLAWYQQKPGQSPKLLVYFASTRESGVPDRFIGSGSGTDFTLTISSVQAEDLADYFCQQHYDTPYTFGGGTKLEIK
notes: also called murine antibody 19F3
